Measured values from publication PMC12416549 (2024).
Numbering of substitutions follows the chain as printed. Names and notes keep the numbering of the source.

B1: E42M (designed binder)
chain: SMEEEVEKAAKEYEKKKKEAIEKHLEKLKAKDKEAAERFLKMLEEAAKEYAKDEAKTMSEEEAKRRAKKYKEKVLLSELSEEEQKEIKEAEEKLVRTILKYVEEAAK
B2: K18W (designed binder)
chain: B1 chain with K18W, M42E
B3: E19D (designed binder)
chain: B1 chain with E19D, M42E
B4: K33D (designed binder)
chain: B1 chain with K33D, M42E
B5: E44H (designed binder)
chain: B1 chain with M42E, E44H
B6: K27C (designed binder)
chain: B1 chain with K27C, M42E
B7: L25R (designed binder)
chain: B1 chain with L25R, M42E
B8: T57Q (designed binder)
chain: B1 chain with M42E, T57Q
B9: V6W (designed binder)
chain: B1 chain with V6W, M42E
B10: L94V (designed binder)
chain: B1 chain with M42E, L94V
B11: T57C (designed binder)
chain: B1 chain with M42E, T57C
B12: H24P (designed binder)
chain: B1 chain with H24P, M42E
B13: E4M (designed binder)
chain: B1 chain with E4M, M42E
B14: E82D (designed binder)
chain: B1 chain with M42E, E82D
B15: L76A (designed binder)
chain: B1 chain with M42E, L76A
B16: Y70Q (designed binder)
chain: B1 chain with M42E, Y70Q
B17: H24D (designed binder)
chain: B1 chain with H24D, M42E
B18: E82M (designed binder)
chain: B1 chain with M42E, E82M
B19: I98S (designed binder)
chain: B1 chain with M42E, I98S
B20: K29T (designed binder)
chain: B1 chain with K29T, M42E
B21: A51Q (designed binder)
chain: B1 chain with M42E, A51Q
B22: V95F (designed binder)
chain: B1 chain with M42E, V95F
B23: Y101T (designed binder)
chain: B1 chain with M42E, Y101T
B24: V74F (designed binder)
chain: B1 chain with M42E, V74F
B25: E5Q (designed binder)
chain: B1 chain with E5Q, M42E
B26: E4A (designed binder)
chain: B1 chain with E4A, M42E
B27: A67R (designed binder)
chain: B1 chain with M42E, A67R
B28: Y13T (designed binder)
chain: B1 chain with Y13T, M42E
B29: E60W (designed binder)
chain: B1 chain with M42E, E60W
B30: A36P (designed binder)
chain: B1 chain with A36P, M42E
B31: S77D (designed binder)
chain: B1 chain with M42E, S77D
B32: E83L (designed binder)
chain: B1 chain with M42E, E83L
B33: K29D (designed binder)
chain: B1 chain with K29D, M42E
B34: Y50G (designed binder)
chain: B1 chain with M42E, Y50G
B35: E42F (designed binder)
chain: B1 chain with M42F
B36: V102C (designed binder)
chain: B1 chain with M42E, V102C
B37: E72K (designed binder)
chain: B1 chain with M42E, E72K
B38: L79A (designed binder)
chain: B1 chain with M42E, L79A
B39: A35S (designed binder)
chain: B1 chain with A35S, M42E
B40: E104C (designed binder)
chain: B1 chain with M42E, E104C
B41: L28N (designed binder)
chain: B1 chain with L28N, M42E
B42: S1I (designed binder)
chain: B1 chain with S1I, M42E
B43: E86W (designed binder)
chain: B1 chain with M42E, E86W
B44: K85I (designed binder)
chain: B1 chain with M42E, K85I
B45: A9I (designed binder)
chain: B1 chain with A9I, M42E
B46: R66V (designed binder)
chain: B1 chain with M42E, R66V
B47: V6N (designed binder)
chain: B1 chain with V6N, M42E
B48: I98Y (designed binder)
chain: B1 chain with M42E, I98Y
B49: T57K (designed binder)
chain: B1 chain with M42E, T57K
B50: L99E (designed binder)
chain: B1 chain with M42E, L99E
B51: E72V (designed binder)
chain: B1 chain with M42E, E72V
B52: E82L (designed binder)
chain: B1 chain with M42E, E82L
B53: E4I (designed binder)
chain: B1 chain with E4I, M42E
B54: E26P (designed binder)
chain: B1 chain with E26P, M42E
B55: K33V (designed binder)
chain: B1 chain with K33V, M42E
B56: V95T (designed binder)
chain: B1 chain with M42E, V95T
B57: A105H (designed binder)
chain: B1 chain with M42E, A105H
B58: K18C (designed binder)
chain: B1 chain with K18C, M42E
B59: K73C (designed binder)
chain: B1 chain with M42E, K73C

Molecular target: T1, TNFR1 (Homo sapiens, UniProt P19438)
T1 chain: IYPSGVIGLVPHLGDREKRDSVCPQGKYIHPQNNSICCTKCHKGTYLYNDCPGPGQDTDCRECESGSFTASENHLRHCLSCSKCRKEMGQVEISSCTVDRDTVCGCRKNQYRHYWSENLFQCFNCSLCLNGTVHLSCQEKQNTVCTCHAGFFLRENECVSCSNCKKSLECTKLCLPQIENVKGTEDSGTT
Assay: yeast display SC50

apparent Kd (screen) [nM] | Binder
12.5 | B1
0.79 | B2
0.446 | B3
1.05 | B4
3 | B5
0.593 | B6
1.69 | B7
0.446 | B8
0.49 | B9
0.446 | B10
2.73 | B11
12.5 | B12
0.653 | B13
1.05 | B14
4.83 | B15
5.84 | B16
1.4 | B17
0.79 | B18
11.4 | B19
0.593 | B20

apparent Kd (screen) [nM] | Binder
0.446 | B21
13.8 | B22
0.49 | B23
9.41 | B24
0.446 | B25
0.539 | B26
7.07 | B27
1.69 | B28
0.446 | B29
0.446 | B30
11.4 | B31
1.27 | B32
0.49 | B33
10.4 | B34
12.5 | B35
1.4 | B36
9.41 | B37
2.73 | B38
0.79 | B39
1.27 | B40

apparent Kd (screen) [nM] | Binder
1.16 | B41
0.79 | B42
1.54 | B43
0.539 | B44
0.446 | B45
18.3 | B46
2.73 | B47
5.84 | B48
0.446 | B49
12.5 | B50
1.27 | B51
0.718 | B52
1.86 | B53
22.2 | B54
0.446 | B55
13.8 | B56
2.05 | B57
0.869 | B58
24.4 | B59
